Legend:
Assay in all cases: DNA electrochemistry
StXPB1 = target: T1, StXPB1 (Sulfolobus tokodaii, UniProt Q971U1 1-543)
T1 sequence: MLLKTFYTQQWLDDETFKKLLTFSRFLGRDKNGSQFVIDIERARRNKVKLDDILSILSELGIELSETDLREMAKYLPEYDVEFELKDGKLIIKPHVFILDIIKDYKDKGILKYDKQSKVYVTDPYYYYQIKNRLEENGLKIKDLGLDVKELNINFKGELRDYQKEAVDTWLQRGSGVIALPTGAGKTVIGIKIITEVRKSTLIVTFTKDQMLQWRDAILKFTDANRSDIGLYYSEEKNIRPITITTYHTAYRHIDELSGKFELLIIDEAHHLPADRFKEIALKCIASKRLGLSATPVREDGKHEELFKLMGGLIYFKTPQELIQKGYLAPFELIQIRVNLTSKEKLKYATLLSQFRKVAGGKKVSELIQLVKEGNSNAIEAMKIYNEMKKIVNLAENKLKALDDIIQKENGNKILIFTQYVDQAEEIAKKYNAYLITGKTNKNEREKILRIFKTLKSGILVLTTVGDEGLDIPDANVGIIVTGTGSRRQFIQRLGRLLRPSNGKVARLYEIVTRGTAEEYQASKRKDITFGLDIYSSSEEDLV

StXPB2 = target: T2, StXPB2 (Sulfolobus tokodaii, UniProt Q970I2 1-439)
T2 sequence: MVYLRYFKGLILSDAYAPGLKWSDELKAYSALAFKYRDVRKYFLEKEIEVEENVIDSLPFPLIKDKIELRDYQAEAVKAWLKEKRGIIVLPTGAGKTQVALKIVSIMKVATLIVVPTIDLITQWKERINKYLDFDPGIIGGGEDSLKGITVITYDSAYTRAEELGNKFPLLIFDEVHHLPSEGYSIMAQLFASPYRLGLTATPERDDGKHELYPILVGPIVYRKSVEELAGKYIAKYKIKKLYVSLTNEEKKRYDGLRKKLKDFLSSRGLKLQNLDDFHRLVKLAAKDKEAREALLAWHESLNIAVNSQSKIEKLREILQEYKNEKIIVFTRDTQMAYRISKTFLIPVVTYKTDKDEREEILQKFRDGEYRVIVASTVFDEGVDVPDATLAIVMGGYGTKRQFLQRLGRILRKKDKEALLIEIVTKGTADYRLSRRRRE

AfXPB = target: T3, AfXPB (Archaeoglobus fulgidus, UniProt O29889 1-452)
T3 sequence: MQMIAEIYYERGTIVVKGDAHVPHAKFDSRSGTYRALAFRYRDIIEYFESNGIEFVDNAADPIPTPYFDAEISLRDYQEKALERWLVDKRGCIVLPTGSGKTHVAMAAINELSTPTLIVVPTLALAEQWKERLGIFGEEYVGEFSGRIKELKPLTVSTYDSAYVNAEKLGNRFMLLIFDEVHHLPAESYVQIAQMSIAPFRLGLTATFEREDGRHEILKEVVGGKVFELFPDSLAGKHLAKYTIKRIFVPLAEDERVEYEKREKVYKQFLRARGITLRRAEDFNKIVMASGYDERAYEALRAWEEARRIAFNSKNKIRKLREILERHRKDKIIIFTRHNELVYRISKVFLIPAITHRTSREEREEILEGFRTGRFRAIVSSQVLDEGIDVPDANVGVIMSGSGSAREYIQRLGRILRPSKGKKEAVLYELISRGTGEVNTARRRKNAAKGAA

B1: 17mer well-matched duplex (WM) (dsDNA)
DNA 1: GAGATATAAAGCACGCA
DNA 2: TGCGTGCTTTATATCTC
modifications: strand 1 5' C6 thiol on gold electrode; strand 2 5'-terminal T is Nile Blue-modified (5-acrylate dU)
Kd (StXPB1): 8 ± 2 nM
Kd (StXPB2): 50 ± 10 nM
Kd (AfXPB): 22 ± 8 nM

Reference: paper PMC5957534
